Assay results reported in publication PMC2857867 (The FASEB Journal, 2010).

B1: mIFNα-A (ligand)
chain: CDLPHTYNLRNKRALKVLAQMRRLPFLSCLKDRQDFGFPLEKVDNQQIQKAQAIPVLRDLTQQTLNLFTSKASSAAWNATLLDSFCNDLHQQLNDLQTCLMQQVGVQEPPLTQEDALLAVRKYFHRITVYLREKKHSPCAWEVVRAEVWRALSSSVNLLPRLSEEKE
B2: mIFNβ (ligand)
chain: INYKQLQLQERTNIRKCQELLEQLNGKINLTYRADFKIPMEMTEKMQKSYTAFAIQEMLQNVFLVFRNNFSSTGWNETIVVRLLDELHQQTVFLKTVLEEKQEERLTWEMSSTALHLKSYYWRVQRYLKLMKYNSYAWMVVRAEIFRNFLIIRRLTRNFQN
B3: hIL-28A (ligand)
chain: VPVARLHGALPDARGCHIAQFKSLSPQELQAFKRAKDALEESLLLKDCRCHSRLFPRTWDLRQLQVRERPMALEAELALTLKVLEATADTDPALVDVLDQPLHTLHHILSQFRACIQPQPTAGPRTRGRLHHWLYRLQEAPKKESPGCLEASVTFNLFRLLTRDLNCVASGDLCV
B4: mIL-28A (ligand)
chain: DPVPRATRLPVEAKDCHIAQFKSLSPKELQAFKKAKDAIEKRLLEKDLRCSSHLFPRAWDLKQLQVQERPKALQAEVALTLKVWENMTDSALATILGQPLHTLSHIHSQLQTCTQLQATAEPRSPSRRLSRWLHRLQEAQSKETPGCLEASVTSNLFRLLTRDLKCVANGDQCV
B5: mIL-10 (ligand)
chain: SRGQYSREDNNCTHFPVGQSHMLLELRTAFSQVKTFFQTKDQLDNILLTDSLMQDFKGYLGCQALSEMIQFYLVEVMPQAEKHGPEIKEHLNSLGEKLKTLRMRLRRCHRFLPCENKSKAVEQVKSDFNKLQDQGVYKAMNEFDIFINCIEAYMMIKMKS

Molecular target: T1, VACV strain WR IFNα/βBP B18 (vaccinia virus strain Western Reserve, UniProt P25213 20-351)
Assay: SPR

Question: B1 was tested. Which Kd did it give?
Answer: Its Kd is 0.455 nM.

Question: And the koff?
Answer: Its koff is 0.000784 s⁻¹.

Question: What about the kon of the same binder?
Answer: The kon was 1.72e+06 M⁻¹ s⁻¹.

Question: For B2, which Kd is on record?
Answer: Its Kd is 3.2 nM.

Question: And the koff?
Answer: Its koff is 0.000333 s⁻¹.

Question: And the kon?
Answer: The kon was 104000 M⁻¹ s⁻¹.

Question: Which Kd does the source give for B3 here?
Answer: The Kd was 14.9 nM.

Question: And the koff?
Answer: Its koff is 0.00364 s⁻¹.

Question: What about the kon of the same binder?
Answer: Its kon is 245000 M⁻¹ s⁻¹.

Question: Which Kd does the source give for B4 here?
Answer: Its Kd is 13.4 nM.

Question: What about the koff of the same binder?
Answer: The koff was 0.0112 s⁻¹.

Question: And the kon?
Answer: The kon was 832000 M⁻¹ s⁻¹.

Molecular target: T1, VACV strain WR IFNα/βBP B18
Assay: SPR
Remark: another data set of the same source

Question: Does B5 bind?
Answer: Result: binds
